# According to CN115716874A (SHENZHEN ZHUORUN BIOTECHNOLOGY CO LTD, dated 2023):
# B1: Ab-03 (antibody, mouse IgG1, kappa, V domains shown)
# VH: QVQLQQSGPEVVRPGVSVKISCKGSGYTFTDYAMQWVKQSHAKSLEWIGVISTYNGNTNYNQKFKGKATMTVDKSSSTAYMELARLTSEDSAIYYCARSLYYGSSPYAMDYWGQGTSVTVSS
# VL: DIVMSQSPSSLAVSAGEKVTMSCKSSQSLLNSRTRKNYLAWYQQKPGQSPKLLIYWASTRESGVPDRFTGSGSGTDFTLTISSVQAEDLAVYYCKQSYNLFTFGSGTKLEIKR
# notes: Mouse hybridoma antibody from ascites, Protein A purified; also called 针对AFP-L3与凝集素复合物的单克隆抗体; Ab-03抗体株
# Biological target: T1, AFP-L3与凝集素复合物 (Lens culinaris, UniProt P02870 31-210; P02870 218-269, limits assumed)
# T1 construct: Non-covalent complex of recombinant AFP (AFP-L3 glycoform) with lentil lectin, mass ratio AFP-L3:lectin 1:5; immobilised on a CM5 chip for SPR; Native LCA consists of processed alpha and beta chains; also called AFP-L3与LCA复合物; AFP-L3-LCA复合物
# T1 sequence 1: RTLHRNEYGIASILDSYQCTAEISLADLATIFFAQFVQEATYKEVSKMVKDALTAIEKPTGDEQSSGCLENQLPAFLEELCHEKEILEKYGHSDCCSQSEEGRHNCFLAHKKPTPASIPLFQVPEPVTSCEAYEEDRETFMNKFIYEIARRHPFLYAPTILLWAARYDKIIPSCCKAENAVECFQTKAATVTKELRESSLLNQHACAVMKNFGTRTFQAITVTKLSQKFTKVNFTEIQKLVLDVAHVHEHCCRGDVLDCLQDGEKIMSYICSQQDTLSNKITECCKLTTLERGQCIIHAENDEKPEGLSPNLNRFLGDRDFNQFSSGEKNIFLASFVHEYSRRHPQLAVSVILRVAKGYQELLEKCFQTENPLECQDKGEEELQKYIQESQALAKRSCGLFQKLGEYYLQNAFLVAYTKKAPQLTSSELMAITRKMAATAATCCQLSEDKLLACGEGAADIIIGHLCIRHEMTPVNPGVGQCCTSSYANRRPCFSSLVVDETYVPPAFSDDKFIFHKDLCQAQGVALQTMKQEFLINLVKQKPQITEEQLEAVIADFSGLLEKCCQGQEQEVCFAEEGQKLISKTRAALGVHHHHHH
# T1 sequence 2: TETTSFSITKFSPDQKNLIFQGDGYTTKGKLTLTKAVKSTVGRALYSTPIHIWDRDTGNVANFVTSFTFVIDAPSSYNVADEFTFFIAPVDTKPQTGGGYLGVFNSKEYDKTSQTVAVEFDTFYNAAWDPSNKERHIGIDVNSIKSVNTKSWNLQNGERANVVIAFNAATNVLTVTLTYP
# T1 sequence 3: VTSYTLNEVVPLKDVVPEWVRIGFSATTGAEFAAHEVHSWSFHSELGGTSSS
# Experiment: SPR, Biacore T200, complex immobilised on CM5 chip, antibody as analyte
binder,measurement,value
B1,Kd,2.66 nM
